Molecular target: T1, Pup ligase CgluPafA-His6 (proteasome accessory factor A from Corynebacterium glutamicum) (Corynebacterium glutamicum, UniProt Q8NQE1 1-482)
T1 construct: Pup ligase PafA, Corynebacterium glutamicum; The anisotropy methods call the titrated protein only 'CgluPafA'
T1 sequence (looked up): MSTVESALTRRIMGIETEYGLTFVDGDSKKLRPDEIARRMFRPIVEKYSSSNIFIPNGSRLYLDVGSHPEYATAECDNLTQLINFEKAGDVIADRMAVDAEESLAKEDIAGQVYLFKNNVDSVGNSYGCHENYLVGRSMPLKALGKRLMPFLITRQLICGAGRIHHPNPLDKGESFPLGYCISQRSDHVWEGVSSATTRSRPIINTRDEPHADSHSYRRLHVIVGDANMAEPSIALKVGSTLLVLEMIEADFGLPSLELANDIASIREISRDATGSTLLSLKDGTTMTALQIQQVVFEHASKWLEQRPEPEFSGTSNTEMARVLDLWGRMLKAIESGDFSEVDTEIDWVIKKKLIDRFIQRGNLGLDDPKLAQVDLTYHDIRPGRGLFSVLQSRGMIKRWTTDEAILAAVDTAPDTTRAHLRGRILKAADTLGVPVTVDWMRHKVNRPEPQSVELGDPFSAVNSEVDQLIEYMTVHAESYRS
Assay: fluorescence polarisation; fluorescence anisotropy on a Synergy BioTek plate reader; 12.5 nM CgluPup-Q30C-Fluorescein labeled substrate or free CgluPup with 0 to 30 uM CgluPafA; 50 mM Tris pH 8.04 (RT), 150 mM NaCl, 0.5 mM EDTA, 0.001% Tween-20
Conditions: both partners purified

B1: fluorescein-labeled CgluPup-Q30C variant (free) (natural protein, Corynebacterium glutamicum, UniProt Q8NQE0 1-64, looked up)
chain: MNAKQTQIMGGGGRDEDNAEDSAQASGQVC(fluorescein‑5‑maleimide)INTEGVDSLLDEIDGLLENNAEEFVRSYVQKGGE
notes: prokaryotic ubiquitin-like protein Pup, Corynebacterium glutamicum; also called CgluPup-Q30C-Fluorescein; free CgluPup-Q30C
Binder B1 has a Kd of 1.82 ± 0.18 µM.
